In patent US20200079833A1 (AstraZeneca / MedImmune, published 2020):
Starred links: 1 amine or outer side, 2 acyl side, 3 side chain; linkers in the order of their positions; H or OH if unused. Non-standard residues stand in square brackets, D forms with d. Groups on a side chain read outwards from the residue. Primed or numbered codes have the meaning given here. No end group written: not given here. *: point of attachment. Dodecylbenzoate = dodecylbenzoyl lipid group; γGlu = O=C(O)[C@H](CCC(=O)[*:2])N[*:1]; Stearoyl = CCCCCCCCCCCCCCCCCC(=O)*; αMeF = C[C@](N)(Cc1ccccc1)C(=O)O; αMeK = C[C@](N)(CCCCN)C(=O)O; Lauroyl = CCCCCCCCCCCC(=O)*; αMeS = C[C@](N)(CO)C(=O)O; PEG2′ = not defined here; Aib = CC(C)(N)C(=O)O; Ahx = NCCCCCC(=O)O

T1: GLP-1R (INS1e assay) (UniProt P32301 22-463, limits assumed)
T1 sequence (looked up): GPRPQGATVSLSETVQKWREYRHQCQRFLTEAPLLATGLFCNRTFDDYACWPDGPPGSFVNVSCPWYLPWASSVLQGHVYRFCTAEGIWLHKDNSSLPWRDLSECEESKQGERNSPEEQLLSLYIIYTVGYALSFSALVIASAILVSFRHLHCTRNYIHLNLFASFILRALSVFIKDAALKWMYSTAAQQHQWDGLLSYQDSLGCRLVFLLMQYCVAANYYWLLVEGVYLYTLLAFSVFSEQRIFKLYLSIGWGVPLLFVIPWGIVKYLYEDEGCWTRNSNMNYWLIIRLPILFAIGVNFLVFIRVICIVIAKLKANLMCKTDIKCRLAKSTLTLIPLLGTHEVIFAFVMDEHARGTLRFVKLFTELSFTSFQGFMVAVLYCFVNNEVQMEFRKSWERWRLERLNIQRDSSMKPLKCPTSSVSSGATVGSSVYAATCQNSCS


Molecular target: T1, GLP-1R (INS1e assay)
Assay: cell-based or functional assay

Row | INS1e assay EC50 GLP-1 R n1 [nM] | INS1e assay EC50 GLP-1 R n2 [nM] | INS1e assay EC50 Mean pM GLP-1R [pM] | Binder
1 | 0.114 | 0.173 | 144 | H[Aib]EGS[αMeF]TSDV[αMeS]S[αMeF]LEGEAA[αMeK]E[αMeF]IA[αMeF]VVK([PEG2′-PEG2′-Stearoyl])GG-NH2 [SEQ ID NO 189]
2 | 0.0678 | 0.0506 | 59.2 | H[Aib]EGS[αMeF]TSDV[αMeS]S[αMeF]LEGEAA[αMeK]E[αMeF]IA[αMeF]VVK([PEG2′-PEG2′-Dodecylbenzoate])GG-NH2 [SEQ ID NO 180]
3 | 0.31 | 0.258 | 284 | H[Aib]EGS[αMeF]TSDV[αMeS]S[αMeF]LEGEAA[αMeK]E[αMeF]IA[αMeF]VVK([Ahx-Ahx-Ahx-Dodecylbenzoate])GG-NH2 [SEQ ID NO 178]
4 | 0.266 | 0.755 | 510 | H[Aib]EGS[αMeF]TSDV[αMeS]S[αMeF]LEGEAA[αMeK]E[αMeF]IA[αMeF]VVK([Ahx-Ahx-Dodecylbenzoate])GG-NH2 [SEQ ID NO 177]
5 | 0.336 | 0.345 | 340 | H[Aib]EGS[αMeF]TSDV[αMeS]S[αMeF]LEGEAA[αMeK]E[αMeF]IA[αMeF]VVK([PEG2′-Dodecylbenzoate])GG-NH2 [SEQ ID NO 179]
6 | 0.351 | 0.501 | 426 | H[Aib]EGS[αMeF]TSDV[αMeS]S[αMeF]LEGEAA[αMeK]E[αMeF]IA[αMeF]VVK([γGlu-γGlu-γGlu-Stearoyl])GG-NH2 (N-terminus assumed; SMILES CCCCCCCCCCCCCCCCCC(=O)N[C@@H](CCC(=O)N[C@@H](CCC(=O)N[C@@H](CCC(=O)NCCCC[C@H](NC(=O)[C@@H](NC(=O)[C@@H](NC(=O)[C@](C)(Cc1ccccc1)NC(=O)[C@H](C)NC(=O)[C@@H](NC(=O)[C@](C)(Cc1ccccc1)NC(=O)[C@H](CCC(=O)O)NC(=O)[C@](C)(CCCCN)NC(=O)[C@H](C)NC(=O)[C@H](C)NC(=O)[C@H](CCC(=O)O)NC(=O)CNC(=O)[C@H](CCC(=O)O)NC(=O)[C@H](CC(C)C)NC(=O)[C@](C)(Cc1ccccc1)NC(=O)[C@H](CO)NC(=O)[C@](C)(CO)NC(=O)[C@@H](NC(=O)[C@H](CC(=O)O)NC(=O)[C@H](CO)NC(=O)[C@@H](NC(=O)[C@](C)(Cc1ccccc1)NC(=O)[C@H](CO)NC(=O)CNC(=O)[C@H](CCC(=O)O)NC(=O)C(C)(C)NC(=O)[C@@H](N)Cc1c[nH]cn1)[C@@H](C)O)C(C)C)[C@@H](C)CC)C(C)C)C(C)C)C(=O)NCC(=O)NCC(N)=O)C(=O)O)C(=O)O)C(=O)O) [SEQ ID NO 184]
7 | 0.0453 | 0.114 | 79.7 | H[Aib]EGS[αMeF]TSDV[αMeS]S[αMeF]LEGEAA[αMeK]E[αMeF]IA[αMeF]VVK([PEG2′-PEG2′-PEG2′-Dodecylbenzoate])GG-NH2 [SEQ ID NO 181]
8 | 0.0397 | 0.0485 | 44.1 | H[Aib]EGS[αMeF]TSDV[αMeS]S[αMeF]LEGEAA[αMeK]E[αMeF]IA[αMeF]VVK([PEG2′-PEG2′-PEG2′-Stearoyl])GG-NH2 [SEQ ID NO 190]

Continued, binder first:

Row | Binder | INS1e assay EC50 GLP-1 R n1 [nM] | INS1e assay EC50 GLP-1 R n2 [nM] | INS1e assay EC50 Mean pM GLP-1R [pM]
9 | H[Aib]EGS[αMeF]TSDV[αMeS]S[αMeF]LEGEAA[αMeK]E[αMeF]IA[αMeF]VVK([Ahx-Ahx-Lauroyl])GG-NH2 (N-terminus assumed; SMILES CCCCCCCCCCCC(=O)NCCCCCC(=O)NCCCCCC(=O)NCCCC[C@H](NC(=O)[C@@H](NC(=O)[C@@H](NC(=O)[C@](C)(Cc1ccccc1)NC(=O)[C@H](C)NC(=O)[C@@H](NC(=O)[C@](C)(Cc1ccccc1)NC(=O)[C@H](CCC(=O)O)NC(=O)[C@](C)(CCCCN)NC(=O)[C@H](C)NC(=O)[C@H](C)NC(=O)[C@H](CCC(=O)O)NC(=O)CNC(=O)[C@H](CCC(=O)O)NC(=O)[C@H](CC(C)C)NC(=O)[C@](C)(Cc1ccccc1)NC(=O)[C@H](CO)NC(=O)[C@](C)(CO)NC(=O)[C@@H](NC(=O)[C@H](CC(=O)O)NC(=O)[C@H](CO)NC(=O)[C@@H](NC(=O)[C@](C)(Cc1ccccc1)NC(=O)[C@H](CO)NC(=O)CNC(=O)[C@H](CCC(=O)O)NC(=O)C(C)(C)NC(=O)[C@@H](N)Cc1c[nH]cn1)[C@@H](C)O)C(C)C)[C@@H](C)CC)C(C)C)C(C)C)C(=O)NCC(=O)NCC(N)=O) [SEQ ID NO 168] | 0.189 | 0.462 | 326
10 | H[Aib]EGS[αMeF]TSDV[αMeS]S[αMeF]LEGEAA[αMeK]E[αMeF]IA[αMeF]VVK([PEG2′-Lauroyl])GG-NH2 [SEQ ID NO 170] | 0.548 | 0.376 | 462
11 | H[Aib]EGS[αMeF]TSDV[αMeS]S[αMeF]LEGEAA[αMeK]E[αMeF]IA[αMeF]VVK([Ahx-Ahx-Ahx-Lauroyl])GG-NH2 (N-terminus assumed; SMILES CCCCCCCCCCCC(=O)NCCCCCC(=O)NCCCCCC(=O)NCCCCCC(=O)NCCCC[C@H](NC(=O)[C@@H](NC(=O)[C@@H](NC(=O)[C@](C)(Cc1ccccc1)NC(=O)[C@H](C)NC(=O)[C@@H](NC(=O)[C@](C)(Cc1ccccc1)NC(=O)[C@H](CCC(=O)O)NC(=O)[C@](C)(CCCCN)NC(=O)[C@H](C)NC(=O)[C@H](C)NC(=O)[C@H](CCC(=O)O)NC(=O)CNC(=O)[C@H](CCC(=O)O)NC(=O)[C@H](CC(C)C)NC(=O)[C@](C)(Cc1ccccc1)NC(=O)[C@H](CO)NC(=O)[C@](C)(CO)NC(=O)[C@@H](NC(=O)[C@H](CC(=O)O)NC(=O)[C@H](CO)NC(=O)[C@@H](NC(=O)[C@](C)(Cc1ccccc1)NC(=O)[C@H](CO)NC(=O)CNC(=O)[C@H](CCC(=O)O)NC(=O)C(C)(C)NC(=O)[C@@H](N)Cc1c[nH]cn1)[C@@H](C)O)C(C)C)[C@@H](C)CC)C(C)C)C(C)C)C(=O)NCC(=O)NCC(N)=O) [SEQ ID NO 169] | 0.0931 | 0.269 | 181
12 | H[Aib]EGS[αMeF]TSDV[αMeS]S[αMeF]LEGEAA[αMeK]E[αMeF]IA[αMeF]VVK([PEG2′-PEG2′-Lauroyl])GG-NH2 [SEQ ID NO 171] | 0.0817 | 0.175 | 128
13 | H[Aib]EGS[αMeF]TSDV[αMeS]S[αMeF]LEGEAA[αMeK]E[αMeF]IA[αMeF]VVK([PEG2′-PEG2′-PEG2′-Lauroyl])GG-NH2 [SEQ ID NO 172] | 0.0396 | 0.028 | 33.8
